Measured values: publication doi:10.1101/2024.11.23.624964 (bioRxiv, 2024)

Molecular target: the molecule itself
Assay: thioflavin-T fluorescence

B1: TDP-43-low complexity domain (LCD) (aa: 274-414) (domain or fragment, UniProt Q13148 274-414, looked up)
chain: GRFGGNPGGFGNQGGFGNSRGGGAGLGNNQGSNMGGGMNFGAFSINPAMMAAAQAALQSSWGMMGMLASQQNQSGPSGNNQNQGNMQREPNQAFGSGNNSYSGSNSGAAIGWGSASNAGSGSGFNGGFGSSMDSKSSGWGM
Q: Does B1 bind?
A: Result: binds
